Test results taken from patent US6716813B2, “Use of antimicrobial proteins and peptides for the treatment of otitis media and paranasal sinusitis” (priority 2000, dated 2004).

Assays:
[1] = tested on: M. catarrhalis strain 035E; assay type: cell-based, Moraxella catarrhalis; details: 100 mM NaCl in gel
Description: (§1) The bacteria used in the following examples were cultured as follows: Stocks of NTHi12 and M. catarrhalis […] (generous gift of Dr. Xin-Xing Gu) were maintained at -80° C. For experiments, the bacteria were plated on chocolate agar and incubated overnight at 37° C. in 5% CO2. A single colony was then picked and transferred to 10 ml of brain heart infusion (BHI, Becton Dickinson, Cockeysville, Md.), supplemented with hemin (10 μg/ml, Sigma, St. Louis, Mo.) and NAD (10 μg/ml, Sigma, St. Louis, Mo.), and allowed to grow overnight. In the morning, 1/10 volume of the overnight culture was transferred to fresh medium and incubated for 3-hours. The subculture was then washed twice with 10 mM sodium phosphate and the O.D. at 620 nm was determined. For the S. pneumoniae serotypes 3 and 6B (generous gift of Dr. Xin-Xing Gu), a 50 μl aliquot of the -80° C. stock was thawed on ice, added to 10 ml of Todd-Hewitt broth (THB, Becton Dickinson, Cockeysville, Md.) and cultured overnight. […] The subculture was then washed twice with 10 mM sodium phosphate and the O.D. at 620 nm was determined. […] The diameter of the zones of inhibition produced by each of the antimicrobial molecules against the OM pathogens (NTHi, M. catarrhalis and S. pneumoniae) was then measured in three separate experiments and the average and standard deviation were calculated. […]

[2] = tested on: NTHi strain12; assay type: cell-based, nontypeable Haemophilus influenzae; details: 100 mM NaCl in gel
Description: as §1

[3] = tested on: S. pneumoniae serotype 3; assay type: cell-based, Streptococcus pneumoniae
Description: (§2) The bacteria used in the following examples were cultured as follows: Stocks of NTHi12 and M. catarrhalis […] (generous gift of Dr. Xin-Xing Gu) were maintained at -80° C. For experiments, the bacteria were plated on chocolate agar and incubated overnight at 37° C. in 5% CO2. A single colony was then picked and transferred to 10 ml of brain heart infusion (BHI, Becton Dickinson, Cockeysville, Md.), supplemented with hemin (10 μg/ml, Sigma, St. Louis, Mo.) and NAD (10 μg/ml, Sigma, St. Louis, Mo.), and allowed to grow overnight. In the morning, 1/10 volume of the overnight culture was transferred to fresh medium and incubated for 3-hours. The subculture was then washed twice with 10 mM sodium phosphate and the O.D. at 620 nm was determined. For the S. pneumoniae serotypes 3 and 6B (generous gift of Dr. Xin-Xing Gu), a 50 μl aliquot of the -80° C. stock was thawed on ice, added to 10 ml of Todd-Hewitt broth (THB, Becton Dickinson, Cockeysville, Md.) and cultured overnight. One tenth of the volume of the overnight culture was then transferred to fresh medium and incubated for 3-hours. The subculture was then washed twice with 10 mM sodium phosphate and the O.D. at 620 nm was determined. The radial assay method of […] and coworkers was used, with minor modifications ([…] et al., 1991). The subcultured bacteria (4×10^6 CFU/10 ml underlay gel) were mixed with melted underlay gel at 42° C. (0.1×culture broth-BHI for NTHi and Moraxella and THB for S. pneumoniae-10 mM sodium phosphate, 0.8% low electroendosmosis (EEO)-type agarose) and poured into 8 cm×8 cm square petri plates. The gel was allowed to solidify in the petri plates and wells were punched out with a calibrated 200 μl micropipette tip, cut off at the 50 μl mark (approximately 3 mm). The antimicrobial peptides and proteins were dissolved in 0.01% acetic acid and 4 μl was added to each well. The plates were then incubated for 3 hours at 37° C. in the 5% CO2 incubator. They were next overlaid with the overlay gel (0.5×culture broth, 10 mM sodium phosphate, 0.8% low EEO-type agarose) and covered. The plates were then allowed to incubate overnight at 37° C. in a 5% CO2. The diameter of the zones of inhibition produced by each of the antimicrobial molecules against the OM pathogens (NTHi, M. catarrhalis and S. pneumoniae) was then measured in three separate experiments and the average and standard deviation were calculated. Physiologically, salt concentrations vary depending on the site. However, typically they can be as high as 150 mM. Thus, the salt sensitivity of the antimicrobial molecules was tested. NaCl was added to the gel in Example 2 to obtain a final concentration of 100 mM.

[4] = tested on: S. pneumoniae serotype 6B; assay type: cell-based, Streptococcus pneumoniae
Description: as §2

B1: lactoferrin (protein, UniProt P02788 20-710, looked up)
Lactotransferrin: GRRRSVQWCAVSQPEATKCFQWQRNMRKVRGPPVSCIKRDSPIQCIQAIAENRADAVTLDGGFIYEAGLAPYKLRPVAAEVYGTERQPRTHYYAVAVVKKGGSFQLNELQGLKSCHTGLRRTAGWNVPIGTLRPFLNWTGPPEPIEAAVARFFSASCVPGADKGQFPNLCRLCAGTGENKCAFSSQEPYFSYSGAFKCLRDGAGDVAFIRESTVFEDLSDEAERDEYELLCPDNTRKPVDKFKDCHLARVPSHAVVARSVNGKEDAIWNLLRQAQEKFGKDKSPKFQLFGSPSGQKDLLFKDSAIGFSRVPPRIDSGLYLGSGYFTAIQNLRKSEEEVAARRARVVWCAVGEQELRKCNQWSGLSEGSVTCSSASTTEDCIALVLKGEADAMSLDGGYVYTAGKCGLVPVLAENYKSQQSSDPDPNCVDRPVEGYLAVAVVRRSDTSLTWNSVKGKKSCHTAVDRTAGWNIPMGLLFNQTGSCKFDEYFSQSCAPGSDPRSNLCALCIGDEQGENKCVPNSNERYYGYTGAFRCLAENAGDVAFVKDVTVLQNTDGNNNEAWAKDLKLADFALLCLDGKRKPVTEARSCHLAMAPNHAVVSRMDKVERLKQVLLHQQAKFGRNGSDCPDKFCLFQSETKNLLFNDNTECLARLHGKTTYEKYLGPQYVAGITNLKKCSTSPLLEACEFLRK
effect of salt on the growth inhibitory effect against M. catarrhalis [1]: completely blocked | effect of salt on the growth inhibitory effect against NTHi [2]: completely blocked | effect on growth of S. pneumoniae serotype 3 ([3]; 10 μg, equivalent to 2.5 mg/ml): enhancement of the growth | effect of salt on the growth inhibitory effect against S. pneumoniae serotype 3 ([3]; 100 mM NaCl in gel): completely blocked | effect of salt on the growth inhibitory effect against S. pneumoniae serotype 6B ([4]; 100 mM NaCl in gel): completely blocked | effect on growth of S. pneumoniae serotype 6B ([4]; 10 and 40 μg, equivalent to 2.5 and 10 mg/ml): enhancement of the growth
